In paper PMC3893235 (mAbs, 2013):
Changes are numbered by the printed parent chain. Blank lines part the entries; values can stand above or below the binder they belong to.

Columns and labels:
[1] = target: T1, biotinylated huAng2 (human, UniProt O15123, biotin); experiment: ELISA
[2] = target: human Ang2 protein (Homo sapiens (Human)., UniProt O15123); experiment: KinExA
[3] = target: T1, biotinylated huAng2; experiment: ELISA; remark: listed apart in the source
[4] = target: human Tie2-Fc (human, UniProt Q02763 23-748); experiment: ELISA
human Tie2-Fc, sequence (Q02763 23-748): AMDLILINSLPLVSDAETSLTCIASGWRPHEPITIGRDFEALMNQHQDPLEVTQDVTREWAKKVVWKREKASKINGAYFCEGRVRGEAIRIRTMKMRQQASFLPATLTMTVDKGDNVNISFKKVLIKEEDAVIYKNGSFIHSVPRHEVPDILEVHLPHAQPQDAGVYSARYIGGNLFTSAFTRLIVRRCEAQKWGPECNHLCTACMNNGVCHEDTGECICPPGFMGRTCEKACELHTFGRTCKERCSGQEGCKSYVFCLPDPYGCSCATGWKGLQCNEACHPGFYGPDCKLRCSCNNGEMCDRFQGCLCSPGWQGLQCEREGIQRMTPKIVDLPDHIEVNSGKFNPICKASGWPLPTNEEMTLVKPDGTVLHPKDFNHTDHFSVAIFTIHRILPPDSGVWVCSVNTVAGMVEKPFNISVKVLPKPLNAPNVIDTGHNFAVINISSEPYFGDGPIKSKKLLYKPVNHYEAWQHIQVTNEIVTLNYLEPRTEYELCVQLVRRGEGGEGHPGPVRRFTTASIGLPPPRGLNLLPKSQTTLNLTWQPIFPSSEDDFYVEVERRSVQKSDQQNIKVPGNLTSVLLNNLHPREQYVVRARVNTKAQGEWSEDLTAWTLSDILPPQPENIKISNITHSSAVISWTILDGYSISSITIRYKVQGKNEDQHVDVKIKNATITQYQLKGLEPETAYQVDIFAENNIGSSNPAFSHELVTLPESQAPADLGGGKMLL

IC50 [1]: 0.2 nM
Kd [2]: 0.0245 nM
B1: Ang2 mAb (antibody, V domains shown)
VH: QVQLVESGGGVVQPGRSLRLSCAASGFTFTNYGMHWGRQAPGKGLEWVAVISHDGNNKYYVDSVKGRFTISRDNSKNTLYLQMNSLRAEDTAVYYCAREGIDFWSGLNWFDPWGQGTLVTVSS
VL: EIVLTQSPGTLSLSPGERATLSCRASQSITGSYLAWYQQKPGQAPRLLICGASSWATGIPDRFSGSGSGTDFTLTISRLEPEDFAVYYCQQYSSSPITFGQGTRLEIK

fold change of potency against Ang2 mAb [3]: ≤ 2.5 fold
B2: Ang2 mAb variant Cys49Gly (antibody, V domains shown)
VH: B1 VH
VL: B1 VL with C50G

binding result [3]: binds
B3: Ang2 mAb variant Cys49Phe (antibody, V domains shown)
VH: B1 VH
VL: B1 VL with C50F

IC50 [1]: 0.28 nM
Kd [2]: 0.037 nM
B4: Cys49Thr mAb (antibody, V domains shown)
VH: B1 VH
VL: B1 VL with C50T

binding result [3]: binds
B5: Ang2 mAb variant Cys49Glu (antibody, V domains shown)
VH: B1 VH
VL: B1 VL with C50E

binding result [3]: binds
B6: Cys49Asp (antibody, V domains shown)
VH: B1 VH
VL: B1 VL with C50D

binding result [3]: binds
B7: Cys49Asn (antibody, V domains shown)
VH: B1 VH
VL: B1 VL with C50N

fold change of potency against Ang2 mAb [3]: ≤ 2.5 fold
B8: Ang2 mAb variant Cys49Ala (antibody, V domains shown)
VH: B1 VH
VL: B1 VL with C50A

binding result [4]: binds
B9: biotinylated huAng2 (ligand, human, UniProt O15123 19-496, looked up)
chain: YNNFRKSMDSIGKKQYQVQHGSCSYTFLLPEMDNCRSSSSPYVSNAVQRDAPLEYDDSVQRLQVLENIMENNTQWLMKLENYIQDNMKKEMVEIQQNAVQNQTAVMIEIGTNLLNQTAEQTRKLTDVEAQVLNQTTRLELQLLEHSLSTNKLEKQILDQTSEINKLQDKNSFLEKKVLAMEDKHIIQLQSIKEEKDQLQVLVSKQNSIIEELEKKIVTATVNNSVLQKQQHDLMETVNNLLTMMSTSNSAKDPTVAKEEQISFRDCAEVFKSGHTTNGIYTLTFPNSTEEIKAYCDMEAGGGGWTIIQRREDGSVDFQRTWKEYKVGFGNPSGEYWLGNEFVSQLTNQQRYVLKIHLKDWEGNEAYSLYEHFYLSSEELNYRIHLKGLTGTAGKISSISQPGNDFSTKDGDNDKCICKCSQMLTGGWWFDACGPSNLNGMYYPQRQNTNKFNGIKWYYWKGSGYSLKATTMMIRPADF
modifications: biotin
